± gives the uncertainty stated by the source.
Assay: self-splicing fitness, log relative to wild type (ln ratio); higher = more splicing; Tetrahymena group I intron in knt gene, E. coli kanamycin selection, DiMSum; sequences stand for … in CUCUCU…GGAGGGAAAAGUUAUCAGGCAUGCACCUGGUAGCUAGUCUUUAAACCAAUAGAUUGCAUCGGUUUAAAAGGCAAGACCGUCAAAUUGCGGGAAAGGGGUCAACAGCCGUUCAGUACCAAGUCUCAGGGGAAACUUUGAGAUGGCCUUGCAAAGGGUAUGGUAAUAAGCUGACGGACAUGGUCCUAACCACGCAGCCAAGUCCUAAGUCAACAGAUCUUCUGUUGAUAUGGAUGCAGUUCACAGACUAAAUGUCGGUCGGGGAAGAUGUAUUCUUCUCAUAAGAUAUAGUCGGACCUCUCCUUAAUGGGAGCUAGCGGAUGAAGUGAUGCAACACUGGAGCCGCUGGGAACUAAUUUGUAUGCGAAAGUAUAUUGAUUAGUUUUGGAGUACUCGUGGUCG
How it was run: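 A randomised library covering all eight P1ex-region intron nucleotides was built with the intron in the knt kanamycin-resistance gene on pET-22b(+) and held in E. coli BL21(DE3). Cells were grown overnight at 37°C or 30°C on LB agar, with or without 25 μg/mL kanamycin, plus 100 μg/mL carbenicillin, 50 μM IPTG and 0.2% rhamnose, and pooled colonies were amplicon-sequenced on an Illumina HiSeq 2500. DiMSum fitness is the error-weighted combination of wild-type-normalised replicate fold changes, kanamycin versus none.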

Sequence | self-splicing fitness (ln) (30 °C) | self-splicing fitness (ln) (37 °C)
UGUGAGCAAUAUUACGCCGG | -3.85 ± 0.25 | -1.98 ± 0.33
UACGAGCAAUAUUACGCGGU | -3.15 ± 0.2 | -2.67 ± 0.26
GGAUAGCAAUAUUACGAAAC | -1.67 ± 0.31 | -0.834 ± 0.23
AUUCAGCAAUAUUACGAAUU | -3.71 ± 0.15 | -2.29 ± 0.16
CGGUAGCAAUAUUACGCUUU | -3.21 ± 0.27 | -0.482 ± 0.12
CGACAGCAAUAUUACGGACU | -0.957 ± 0.072 | -0.875 ± 0.11
UAGGAGCAAUAUUACGAGUG | -3.74 ± 0.33 | -1.43 ± 0.17
GAUCAGCAAUAUUACGAAGG | -2.62 ± 0.13 | -1.59 ± 0.14
UGACAGCAAUAUUACGUGUA | -1.58 ± 0.081 | -0.841 ± 0.081
AGAAAGCAAUAUUACGCCUC | -1.37 ± 0.17 | -0.948 ± 0.23
UACCAGCAAUAUUACGGAGA | -1.13 ± 0.07 | -0.596 ± 0.073
GAUUAGCAAUAUUACGUCUC | -1.24 ± 0.33 | -0.965 ± 0.32
ACGCAGCAAUAUUACGGCAU | -0.55 ± 0.059 | 0.0845 ± 0.072
UGGAAGCAAUAUUACGAAUA | 0.136 ± 0.41 | -0.685 ± 0.28
AUAUAGCAAUAUUACGCAGA | -2.82 ± 0.31 | -1.42 ± 0.21
ACGGAGCAAUAUUACGAUGU | -3.19 ± 0.2 | -2.52 ± 0.27
GAUGAGCAAUAUUACGGGCG | -3.36 ± 0.39 | -1.45 ± 0.26
AGUGAGCAAUAUUACGAAGA | -2.9 ± 0.35 | -1.85 ± 0.18
UGGAAGCAAUAUUACGAACA | -0.687 ± 0.13 | -0.937 ± 0.17

Sequence | self-splicing fitness (ln) (30 °C) | self-splicing fitness (ln) (37 °C)
GUUGAGCAAUAUUACGCGAA | -3.43 ± 0.46 | -1.9 ± 0.43
CCCAAGCAAUAUUACGAAGA | -3.32 ± 0.2 | -2.59 ± 0.2
CGCGAGCAAUAUUACGAUGG | -1.66 ± 0.12 | -1.2 ± 0.14
AGGCAGCAAUAUUACGGAGU | -3.02 ± 0.22 | -2.09 ± 0.16
AAGUAGCAAUAUUACGCAGG | -3.61 ± 0.27 | -1.87 ± 0.15
CUUGAGCAAUAUUACGCAAG | -2.37 ± 0.42 | –
CUCUAGCAAUAUUACGCCUC | -1.49 ± 0.3 | –
UGUUAGCAAUAUUACGGACA | -1.59 ± 0.23 | -0.73 ± 0.2
UAGUAGCAAUAUUACGACAA | -0.402 ± 0.15 | -0.175 ± 0.14
GAACAGCAAUAUUACGGUAA | -1.2 ± 0.059 | -0.286 ± 0.064
CCCGAGCAAUAUUACGGAUG | -1.67 ± 0.091 | -1.35 ± 0.13
AUUCAGCAAUAUUACGACUG | -1.47 ± 0.13 | -0.646 ± 0.15
AGCUAGCAAUAUUACGGCUC | -3.32 ± 0.37 | -3.06 ± 0.43
CCAUAGCAAUAUUACGGCUA | -2.48 ± 0.25 | -1.89 ± 0.28
UAAAAGCAAUAUUACGUAGG | -2 ± 0.083 | -1.22 ± 0.11
AGUAAGCAAUAUUACGUGCU | -2.64 ± 0.23 | -1.2 ± 0.14
UCGUAGCAAUAUUACGUAAG | -2.62 ± 0.23 | -2.58 ± 0.32
GGCAAGCAAUAUUACGACAU | -0.288 ± 0.012 | 0.141 ± 0.032
CAUUAGCAAUAUUACGCUAC | -3.99 ± 0.4 | -2.13 ± 0.46

From the supplement of paper PMC7877785
